Results on 34 substances are retold here after patent publication US20200040059A1.

In test [1] the target is CD112R, expressed on transfected cells (human) (UniProt Q6DKI7). In words: flow cytometry on transfected cells. Background: Flow cytometry measures light scatter and fluorescence of single cells or particles in a stream.
For test [2], the target named is T1, human CD226, full length, expressed on transfected cells (human) (UniProt Q15762).
T1 sequence: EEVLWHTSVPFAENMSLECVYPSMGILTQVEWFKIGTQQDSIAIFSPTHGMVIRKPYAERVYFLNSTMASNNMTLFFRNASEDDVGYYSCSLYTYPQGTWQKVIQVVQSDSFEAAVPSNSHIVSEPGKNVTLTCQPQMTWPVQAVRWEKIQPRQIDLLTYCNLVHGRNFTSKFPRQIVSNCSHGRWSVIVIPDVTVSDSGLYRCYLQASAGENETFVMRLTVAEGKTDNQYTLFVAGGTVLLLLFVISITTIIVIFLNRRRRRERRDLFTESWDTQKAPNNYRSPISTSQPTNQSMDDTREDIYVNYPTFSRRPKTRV
The experiment in a line: flow cytometry on transfected cells.

Test [3] deals with CD96, expressed on transfected cells (UniProt P40200). In words: flow cytometry on transfected cells.
The next test has as its target PD-1 (human). The experiment in a line: cell-based or functional assay.

Chain of CD112R, expressed on transfected cells (human) (Q6DKI7 whole entry): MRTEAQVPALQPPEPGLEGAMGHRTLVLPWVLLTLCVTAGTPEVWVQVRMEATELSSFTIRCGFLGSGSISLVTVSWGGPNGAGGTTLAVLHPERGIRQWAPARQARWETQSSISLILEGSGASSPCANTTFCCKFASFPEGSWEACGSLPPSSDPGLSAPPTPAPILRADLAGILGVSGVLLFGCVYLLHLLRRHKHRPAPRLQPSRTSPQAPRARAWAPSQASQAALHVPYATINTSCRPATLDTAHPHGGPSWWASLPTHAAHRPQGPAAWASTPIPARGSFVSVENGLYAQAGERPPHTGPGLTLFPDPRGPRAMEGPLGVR

Consider “CD155 variant S42W, S52R, Q62Y, L104Q IgV-Fc (from UniProt P15151 24-139) (Fc fusion)”, for which the MFI at 100 nM turned out to be 1820 in test [1] and 2300 in test [2].

As to “Wildtype CD155 ECD-Fc (from UniProt P15151 21-343) (Fc fusion)”, the MFI at 100 nM in test [1] amounted to 1780; in test [3] it was 99000.

Turning to “CD155 variant S42C IgV-Fc (from UniProt P15151 24-139) (Fc fusion)”, the figures for the MFI at 100 nM in test [1], in test [3] and in test [2] were 1680, 1590 and 2100, respectively.

“CD155 variant S42C, S52L IgV-Fc (from UniProt P15151 24-139) (Fc fusion)”: the results for the MFI at 100 nM in test [1], in test [3] and in test [2] were 1660, 1480 and 2150, respectively.

In the case of “CD155 variant S52M, Q62Y IgV-Fc (from UniProt P15151 24-139) (Fc fusion)”, the MFI at 100 nM in test [1] worked out at 1770; in test [3], 1650; in test [2], 2000.

Take “CD155 variant S42G, S52Q, L104E, G111R IgV-Fc (from UniProt P15151 24-139) (Fc fusion)”: the MFI at 100 nM in test [1] is 1710; in test [3], 1710; in test [2], 2020.

As to “CD155 variant S52W IgV-Fc (from UniProt P15151 24-139) (Fc fusion)”, the MFI at 100 nM in test [3] amounted to 1710; in test [2], 2040.

For the substance “CD155 variant S52M, V57L IgV-Fc (from UniProt P15151 24-139) (Fc fusion)”, the results for the MFI at 100 nM in test [1], in test [3] and in test [2] were 2010, 1860 and 2430, respectively.

Take “CD155 variant S42N IgV-Fc (from UniProt P15151 24-139) (Fc fusion)”: the MFI at 100 nM was 1700 in test [1], 1690 in test [3] and 1910 in test [2].

“CD155 variant S42L, S52L, Q62F, L104Q IgV-Fc (from UniProt P15151 24-139) (Fc fusion)”: the MFI at 100 nM worked out at 1730 in test [1], 2320 in test [3] and 2640 in test [2].

For “CD155 variant S42G, S52L, Q62F, L104Q IgV-Fc (from UniProt P15151 24-139) (Fc fusion)”, the results for the MFI at 100 nM in test [1], in test [3] and in test [2] were 1660, 1640 and 2160, respectively.

For the substance “CD155 variant S42A, L104Q, G111R IgV-Fc (from UniProt P15151 24-139) (Fc fusion)”, the MFI at 100 nM in test [1] was 1820; in test [3], 1700; in test [2] it was 1900.

Consider “CD155 variant G111R IgV-Fc (from UniProt P15151 24-139) (Fc fusion)”, for which the MFI at 100 nM in test [1] stood at 2470; in test [3], 3320; in test [2] it was 2790.

On to “CD155 variant S42Q IgV-Fc (from UniProt P15151 24-139) (Fc fusion)”, for which the MFI at 100 nM stood at 1910 in test [1], 2140 in test [3] and 2230 in test [2].

Take “CD155 variant S42L IgV-Fc (from UniProt P15151 24-139) (Fc fusion)”: the MFI at 100 nM in test [1] is 1740; in test [3] it was 1620; in test [2], 2190.

As for “CD155 variant S42A IgV-Fc (from UniProt P15151 24-139) (Fc fusion)”, the MFI at 100 nM in test [1] was determined as 1730; in test [3] it was 1620; in test [2], 2190.

With “CD155 variant S42L, S52Q, L104E IgV-Fc (from UniProt P15151 24-139) (Fc fusion)”, the MFI at 100 nM in test [1] turned out to be 1750; in test [3] it was 1700; in test [2] it was 6470.

For “CD155 variant S52W, L104E IgV-Fc (from UniProt P15151 24-139) (Fc fusion)”, the MFI at 100 nM came out at 2070 in test [1], 1630 in test [3] and 1910 in test [2].

For “CD155 variant S42V, S52E IgV-Fc (from UniProt P15151 24-139) (Fc fusion)”, the values for the MFI at 100 nM in test [1], in test [3] and in test [2] were 1810, 2530 and 2270, respectively.

In the case of “CD155 variant S52M IgV-Fc (from UniProt P15151 24-139) (Fc fusion)”, the values for the MFI at 100 nM in test [1] and in test [2] were 1550 and 1900, respectively.

With “CD155 variant Q62F, L104E, G111R IgV-Fc (from UniProt P15151 24-139) (Fc fusion)”, the MFI at 100 nM in test [1] worked out at 1700; in test [3] it was 1520; in test [2], 2040.

“CD155 variant S42N, S52E, V57L, L104E IgV-Fc (from UniProt P15151 24-139) (Fc fusion)”: the MFI at 100 nM came out at 1690 in test [1], 1540 in test [3] and 1740 in test [2].

“CD155 variant S42A, S52Q, L104Q, G111R IgV-Fc (from UniProt P15151 24-139) (Fc fusion)”: the MFI at 100 nM came out at 1890 in test [1], 1640 in test [3] and 2160 in test [2].

Regarding “PD-L2 IgV-Fc H15Q, S67L, R76G, I85F (Fc fusion)”, in the test with PD-1 (human), the Fold increase over wildtype PD-L2 IgV-Fc, MLR IFN gamma worked out at 0.96 fold and the IFN gamma levels pg/mL, MLR came to 1320 pg/mL.

In the case of “PD-L2 IgV-Fc E44D, V89D, W91R (Fc fusion)”, in the test with PD-1 (human), the Fold increase over wildtype PD-L2 IgV-Fc, MLR IFN gamma turned out to be 1.13 fold and the IFN gamma levels pg/mL, MLR was found to be 1560 pg/mL.

In the test with PD-1 (human), “PD-L2 IgV-Fc H15Q, T47A, S67L, Q82R, V89D (Fc fusion)” came in with a Fold increase over wildtype PD-L2 IgV-Fc, MLR IFN gamma of 0.87 fold and an IFN gamma levels pg/mL, MLR of 1200 pg/mL.

As for “PD-L2 IgV-Fc H15Q, T47A, Q72H, R76G (Fc fusion)”, in the test with PD-1 (human), the Fold increase over wildtype PD-L2 IgV-Fc, MLR IFN gamma is 1.06 fold and the IFN gamma levels pg/mL, MLR was 1460 pg/mL.

For the substance PD-L2 IgV-Fc E59G, Q82R (Fc fusion), in the test with PD-1 (human), the Fold increase over wildtype PD-L2 IgV-Fc, MLR IFN gamma turned out to be 1.1 fold and the IFN gamma levels pg/mL, MLR came to 1510 pg/mL.

In the test with PD-1 (human), PD-L2 IgV-Fc E44D (Fc fusion) showed a Fold increase over wildtype PD-L2 IgV-Fc, MLR IFN gamma of 1.09 fold and an IFN gamma levels pg/mL, MLR of 1500 pg/mL.

On to “PD-L2 IgV-Fc H15Q, N18D, T47A, Q72H, V73A, R76G, I86T, V89D (Fc fusion)”, for which, in the test with PD-1 (human), the Fold increase over wildtype PD-L2 IgV-Fc, MLR IFN gamma turned out to be 0.77 fold and the IFN gamma levels pg/mL, MLR stood at 1070 pg/mL.

With “PD-L2 IgV-Fc I13V, H15Q, T37A, E44D, S48C, S67L, Q82R, V89D (Fc fusion)”, in the test with PD-1 (human), the Fold increase over wildtype PD-L2 IgV-Fc, MLR IFN gamma amounted to 1.27 fold and the IFN gamma levels pg/mL, MLR worked out at 1750 pg/mL.

“PD-L2 IgV-Fc I13V, H15Q, S39I, E44D, S67L (Fc fusion)”: in the test with PD-1 (human), the Fold increase over wildtype PD-L2 IgV-Fc, MLR IFN gamma was 0.91 fold and the IFN gamma levels pg/mL, MLR worked out at 1260 pg/mL.

“PD-L2 IgV-Fc I13V, H15Q, T47A, Q72H, R76G, I86T (Fc fusion)”: in the test with PD-1 (human), the Fold increase over wildtype PD-L2 IgV-Fc, MLR IFN gamma turned out to be 0.79 fold and the IFN gamma levels pg/mL, MLR was found to be 1090 pg/mL.

As for “PD-L2 IgV-Fc I13V, H15Q, T47A, S67L, Q72H, R76G, Q82R, V89D (Fc fusion)”, in the test with PD-1 (human), the Fold increase over wildtype PD-L2 IgV-Fc, MLR IFN gamma turned out to be 1.13 fold and the IFN gamma levels pg/mL, MLR is 1560 pg/mL.
